Assay [1] deals with T1, 人CD47蛋白 (Leukocyte surface antigen CD47) (human, UniProt Q08722 19-141).
T1 construct: extracellular domain; The assays say only 'CD47'; also called human CD47
Description: Biacore (SPR).

The target in assay [2] is T1, 人CD47蛋白 (Leukocyte surface antigen CD47). Description: Biacore (SPR), reference antibody of the comparison.
The target is the same in assay [3]. Description: CD47 binding ELISA, hybridoma screening. On the technique in general: In an ELISA, binding on a coated surface is turned into a signal by an enzyme label.

Where a chain is given by its changes, count along the chain named.

T1 sequence (Q08722 19-141 limits assumed): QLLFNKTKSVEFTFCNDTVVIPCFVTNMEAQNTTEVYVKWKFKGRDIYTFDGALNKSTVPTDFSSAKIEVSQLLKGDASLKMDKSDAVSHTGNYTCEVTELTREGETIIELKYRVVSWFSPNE

B1: hu167-31 (antibody, V domains shown)
VH: QVQLVQSGAEVKKPGASVKVSCKASGYTFTSYWMHWVRQAPGQGLEWMGNIDPSDSETHYNQKFKDRVTMTRDTSISTAYMELSRLRSDDTAVYYCARWGYLGRSAMDYWGQGTTVTVSS
VL: DVQMTQSPSSLSASVGDRVTITCRTSKSISKFLAWYQQKPGKAPKLLIYSGSTLQSGVPSRFSGSGSGTDFTLTISSLQPEDFATYYCQQHNEYPWTFGGGTKVEIK
For the molecule B1, the KD ratio relative to hu167-4 in assay [1] is 1.3.

B2: hu167-32 (antibody, V domains shown)
VH: B1 VH
VL: B1 VL with V2I, M4I
With B2, the KD ratio relative to hu167-4 in assay [1] is 1.2.

B3: hu167-33 (antibody, human IgG4 S228P, kappa, F234A L235A, V domains shown)
VH: B1 VH
VL: DVQITQSPSSLSASVGDRVTITCRTSKSISKFLAWYQQKPGKAPKLLIYSGSTLQSGVPSRFSGSGSGTDFTLTISSLQPEDFATYYCQQHNEYPWTFGGGTKVEIKR
For the molecule B3, in assay [1], the KD ratio relative to hu167-4 amounted to 0.98.

B4: hu055-5 (antibody, human IgG4 S228P, kappa, F234A L235A, V domains shown)
VH: QVQLVQSGAEVKKPGASVKVSCKASGYTFTSSYLHWVRQAPGQRLDWIGWIYPESGNTKYNERFKGRATLTADTSASTAYMELSSLRSEDTAVYYCARRGDVFFAYWGQGTTVTVSS
VL: DIVMTQSPDSLAVSLGERATINCKSSQSLLTSGKQKNYLTWYQQKPGQPPKLLIYWASTRESGVPDRFSGSGSGTDFTLTISSLQAEDVAVYYCQNDYSYPLTFGQGTKLEIKR
In the case of B4, the binding result in assay [1] was “binds”.

B5: 嵌合抗体ch-055 (antibody, V domains shown)
VH: QVLLQQSGPELVQPGASVKISCKASGYSFTSSYLHWVKQRPGQGLDWIGWIYPESGNTKYNERFKGKATLTADTSSSTAYMQLSSLTSEDSAVYYCSRRGDVFFAYWGQGTTLTVSS
VL: DIVMTQSPSYLTVTAGEKVTMSCKSSQSLLTSGKQKNYLTWYQQKPGQPPKLLIYWASTRESGVPERFRGSGSGTDFTLTISSVQAEDLAVYYCQNDYSYPLTFGAGTKLELN
notes: Chimeric antibody of clone 055
Consider B5, for which the binding result in assay [2] is given as “binds”.

B6: 杂交瘤克隆055鼠源抗体 (antibody, V domains shown)
VH: B5 VH
VL: B5 VL
notes: Mouse hybridoma antibody; also called 鼠源抗体055
For B6, the binding result in assay [3] is listed as “binds”.

B7: 杂交瘤克隆167鼠源抗体 (antibody, V domains shown)
VH: QVQLQQPGAELVRPGSSVKLSCKASGYTFTSYWMHWVKQRPIQGLEWVGNIDPSDSETHYNQKFKDKATLTVDKSSSTAYMQLSSLTSEDSAVYYCARWGYLGRSAMDYWGQGTSVTVSS
VL: DVQITQSPSYLAASPGETITINCRTSKSISKFLAWYQEKPGKTHKLLIYSGSTLQSGIPSRFSGSGSGTDFTLTISSLEPEDFAMYYCQQHNEYPWTFGGGTKLEIK
notes: Mouse hybridoma antibody; also called 鼠源抗体167
For B7, in assay [3], the binding result is given as “binds”.

The values above are taken from patent publication CN110538321A (JIANGSU HENGRUI MEDICINE CO; SHANGHAI HENGRUI …, dated 2019).
